Measurements from PMC12592377.

Target: HIV-1 capsid (CA) protein (HIV-1)
Experiment: cryo-EM structure; cryo-ET of cryo-FIB lamellae with template matching and subtomogram averaging (C6 symmetry kept) of CA hexamers in capsid lattices of isolated VLP cores incubated with permeabilized CEM cells, EGS-fixed; cores outside the nucleus (approaching and docking), traversing the NPC and imported

In the case of “HIV-1 capsid (CA) protein (natural protein)”, the stoichiometry N is reported as 6.
